Columns and labels:
[1] = biological target: KpBest, bacterial homolog of human bestrophin 1 (not stated (bacterial))
[2] = biological target: voltage-gated Ca^2+ channel complex; test: FRET or BRET

| Substance | stoichiometry N [1] | stoichiometry N [2] |
| --- | --- | --- |
| KpBest, bacterial homolog of human bestrophin 1 (natural protein) | 5 | – |
| calmodulin (from UniProt P0DP23 1-149) (natural protein) | – | 1 |
